Laboratory results: the nanobody polyreactivity screen of Harvey et al. (2022)

assay: yeast display, Sf9 membrane polyspecificity reagent, FACS + sequencing; frameworks hold sequencing errors
Method in brief: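 Nanobodies from a synthetic yeast display library (Saccharomyces cerevisiae BJ5465), induced 36–48 hours with galactose, were stained 1 hour at 4 °C with 10% biotinylated, detergent-solubilized Sf9 membrane reagent, enriched on streptavidin microbeads, then FACS-sorted. Anti-HA (expression) and streptavidin (reagent binding) fluorescence set low and high (top ~1%) gates. Polyreactivity labels come from the gate of origin. Genes were colony-PCR amplified, MiSeq 2 × 250 sequenced and filtered by CDR length.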

Sequence	polyreactivity (PSR sort gate)
QVQLVESGGGLVQAGGSLRLSCAASGFFFGFYAMGWYRQAPGKERELVASISGRGGRTSYADSVKGRFTISRDNAKITVYLQMNSLKPEDTAVYYCNKAGYGVSRKYDYWGQGTQVTVSS	high polyreactivity
QVQLVESAAGLVQAGGSLRLSCAASGRIFRYNTMGWYRQAPGKESELVAAITSGVRTNYADSVKGRFTISRDNAKNTVYLQMNSLKPEDTAVYYCAADPYWFFPNYDSWGQGTQVTVSS	low polyreactivity
QVQLVESGGGLVQAGGSLRLSCAASGSTFIVNAMGWYRQAPGKERELVATISGGDSTDYADSVKGRFTISRDNAKNTVYLQMNSLKPEDTAVYYCNSDVHQYYFTPYDYWGQGTQVTVSS	low polyreactivity
QVQLVESGGGLVQAGGSLRLSCAASGRTFGYYAMGWYRQAPGKERELVAAISSRGGSTSYADSVKGRFTISRDNAKNTVYLQMNSLKPEDTAVYYCAVGRPRPKYEYDYWGQGTQVTVSS	high polyreactivity
QVQLVESGGGLVQAGGSLRLSCAASGYIFSGYAMGWYRQAPGKERELVAAISSNGGSTYYADSVKGRFTISRDNAKNTVNLQMNSLKPEDTAVYYCNRGLAARVGRGDYWGQGTQVTVSS	low polyreactivity
QVQLVESGGGLVQAGGSLRLSCAASGITFGFYAMGWYRQAPGKERELVASITWRGGSTYYADSVKGRFTISRDNAKNTVYLQMNSLKPEDTAVYYCAAEQYVFRPRAQEITTYDYWGQGTQVTVTS	high polyreactivity
QVQLVESGGGLVQAGGSLRVSCAASGFIFLNNAMGWYRQAPGKERELVAAITWSGGSTYYADSVKGRFTISRDNAKNTVYLQMKSLKPEDTAVYYCAADGWLYYGVGYWGQGTQVTVSS	low polyreactivity
QVQLVESGGGLVQAGGSLRLSCAASRRTSRYYAMGWYRQAPGKETEFVAAINFSGGRTYYADSVKGRFTISRDNAKNSVYLQMNSLKPEDTAVYYCATQDYRYRYSRFGYWGQGTLVTVSS	high polyreactivity
QVQLVESGGGLVQAGGSLRLSCAASGITFRYYVMGWYRQAPGKERELVAAISWSGGSTYYADSVKGRFTISRDNAKNTVYLQMNCLKPEDTAVYYCAAYKRRSNGRYWTYDYWGQGTQVTVSS	high polyreactivity
QVQLVESGGGLVEAGGSLRLSCAASGIFRYYAMGWYRQAPGKERELVASITGGGSTYYADSVKGRFTISRDNAKNTVYLQMNSLKPEDTAVYYCNTAGAYYRWTPYYYWGQGTQVTVSS	high polyreactivity
QVQLVESGGGLVQAGGSLRLSCAASGRTFANNAMGWYRQAPGKERELVAAITASGGRTYYADSVKGRFTISRDNAKNTVYLQLNSLKPEDTAVYYCAKRGYASGSKWDYGYWGQGTQVTVSS	high polyreactivity
QVQLVESGGGLVQAGGSLRLSCAASGRIFLLNPMGWYRKAPGKERELVARISSGRTYYADSVKGRFTISRDNAKNTVYLQMNILKPEDTAVYYCNATVSSSKYRYFYVNPYDYWGQGTQVTVSS	low polyreactivity
QVQLVESGGGLVQAGGSLRLSCAASGSTSGKNAMGWYRQAPGKERELVAVITYSGSRTYYADSVKGRFTISRDNAKNTVYLQMNSLKPEDTAVYYCAAVGGGVSFRGNYWGQGTQVTVSS	high polyreactivity
QVQLVESGGGLVQAGGSLRLSCAASGSTFAKNAMGLYRQAPGKERELVAAISRGGNTYYADSVKGRFTISRDNAKNTVYLQMNSLKPEDTAVYYCAKLPYTRNYLGSLYDYWGQCTQVTVSS	high polyreactivity
QVQLVESGGGLVQAGGSLRLSCAASGRTYSNAMGWYRQAPGKELEFVASISSGGRTKDADSVKGRFTISRDNAKNTVYLQMNSLKPEDTADYYCNTVPGRYRTFDYWGQGTKVTVSS	high polyreactivity
QVQLVESGGGLVQAGGSLRLSCAASGSARYAMGWYRQATGNERELVAAISRRGGSTYYADSVKGRFTISRDNATKTVYLHMNSLKPEDTAVYYCAADGRISYDYWGQGTQVTVSS	low polyreactivity
QVQLVESRGGLVQAGGSLRLSCAASGSIFSWYTMGWSRQAPGKERELVARITTSGGTPRYADSVKGRFTISRDNAKNTVYLQMNSLKPEDTAVYYCAADRSPYWRGYGRYNYWGQGTQVTVSS	high polyreactivity
QVQLVESGGGLVQAGGSLRLSCAASGSIIGNYAMGWYREAPGKERELVAAISWSGGSTYYADSVKGRFTISRDNAKNTVYLQMNSLKPEDTAVYYCAAVDYYRYRSDYDYWGQGTQVTVSS	low polyreactivity
QVQLVESGGGLVQAGGSLRLSCAASGSILSDNAMGWYRQAPGKERELVASIRSGDITKYADSVKGRFTFSRDNAKNTVYLQMNSLKPEDTAVYYCASAGRVLYTRKYYGWRYLNDYWGQGTQVTVSS	low polyreactivity
QVQLVESGGGLVQAGGSLRLSCAASGIFRRYAMGWYRQAPGKERELVAAISYSGGSTEYADSVKGRFTISRDNAKNTVYLQMNSLKPEDTAVYYCAAVNRPRPRRSDYWGQGTQVTVSS	high polyreactivity
QVQLVESGGGLVQAGGSLRLSCAASGSTFRYNAMGWYRQARGKERELVGGITSSGGTYAHSVKGRFTISRDNAKNTVYLQMNSLKPEDTAVYYCNALGVQDEFDYWGQGTQVTVSS	low polyreactivity
QVQLVVSGGGLVQAGGSLRLSCAASGRTFRSNAMGWYRQAPGKERELVAAISRTGRTNYADSVKGRFTISRDTAKNTVYLQMNSLKPEDTAVYYCAARGYSVPRQERYDYWGQGTQVTVSS	high polyreactivity

Sequence	polyreactivity (PSR sort gate)
QVQLVESGGGLVQAGGSLRLSSAASGSTFVWYAMGWYRQAPGKERELVASISGSGGRTYYADSVKGRFTISRDNAKNTVYLQMNSLKPEDTAVYYCAAYYRKTGYDYWGQGTQVTVSS	high polyreactivity
QVQLVESGAGLVQAGGSLRLSCAASGRILIIYAMGWYRQAPGKERELVARITYTGGRTYYADSVKGRFTISRDNAKNTVYRQMNSLKPDDTAVYYCATDWSRSDSYSHYDSWVQGTQVTVSS	low polyreactivity
QVQLVESGGGLVQAGGSLRLSCAASGFTFYYYAMGWYRQAPGKERELVATISRSGGSTYYADSVKGRFTISRDNAKNTVYLQMNSLKPEDTAVYYCAARSYKSPRDYDYWGQGTQVTVSS	high polyreactivity
QVQLVESGGGLVQAGGSLRLSCAASGSIFPVNAMGWYRQAPGKEREFVAAINVIGGSTYYADSVKGRFTISRDNAKNTVYLQMNSLKPEVTAVYYCAVEGYSILFGMDYLGQGTQVTVSS	low polyreactivity
QDQRVDSGGGLVQAGGSLRLSCTAYGFIFGWYAMGWYRQSPGKASQLVAPISQSVGSTYYADSVKGRFTISRDNAKNTVYLQMNSLKPEDSAVYYCNAVGRGSRSRLSSRAGGGDYWGQGTQVTVSS	high polyreactivity
QVQIVESGGGLVQAGGSRRLSCAASGIIFYVNVMGWYRQAPGKERELVASNDGSGDTTYYADSVKGRFTISRDNAKNTVYLQMNSLKPEDTAVYYCAADKYSFWSYYPDDDYIYDYWGQGNQVTVSS	low polyreactivity
QVQLVESGGGLVQAGGSLRLSCVASGRIIPGNAMGGYRQAPGKESELVAAISYGGGSTYYADSVKGRFTISRDNAKNTVYLQMNSLKPADTAVYYCAAASSGEYGYWGQGTQVTVSS	low polyreactivity
QVQLVESGGGLVQAGGSLRLSCAASGRTFRGYTMGWYRQAPGKERELVAAINWSGGRTYYADSVKGRFTISRDYAKNTVYLQMNSLKPEDTAVYDCNAVTQITGSSDGDYWGQGTQVNVSS	high polyreactivity
QVQLVESGGCLVQAGGSLRLSCAASGLIFRGYAMGWYRQAPGKERELVATITGGGRTNYADSVKGRFTLSRDNAKNTVYLQMNSLKPEDTAVYYCNTGYYGRLRDDYWGQGTQVTVSS	high polyreactivity
QVHLVESGGGLVQAGGSLRLSCAASGRTCRINAMGWYRQAPGKERELVAAITSGGRTNYADSVKGRFTISRDNAKNTVYLQMNSLKPEDTAVYYCAADTTHWYYLGYGYWGQGNQVTVSS	low polyreactivity
QVQLVESGGGLVQAGGSLRLSCAASGSIFYYYAMGWYRQAPGKERELVASITRGGSTYYADSVKGRFTISRDNAKNTVYLQMNSLKPEDTAVYYCNADLGAYVPFDYWGQGTQVTVSS	high polyreactivity
QVQLEESGGGLVQAGGSLLLICADSGSILGGNAMGWYRHAPGKERQMVDAITFSGGGTYYADSVKGRFTLSRDNAKNTVYLQMNSLKPEDTAVYYCAADKDGYTYEFDYWGQGTQVTVSS	low polyreactivity
QVQLVESGGGLVQAGGSLRLSCAASGSIFSDYAMGWYRQAPGKERELVAAITQSGVSTYADSVKGRFTISRDNAKNTVYLQMNSLKPEDTAVYYCAADEVPGFGYPPYPWFDYWGQGTQVTVSS	low polyreactivity
QVQLVESGGGLVQAGGSLRLSCAASGIIFRRYAMGWYRQAPVKERELVAAITRGGITYYADSVKGRFTISRDNAKNTVYLQMNSLKPEDTAVYYCAALAYPQEYDYWGQGTQVTVSS	low polyreactivity
QVQLVESGGGLVQAGGSLRLSCAASGRTFVGNGKGWYRLAPGKERELLASISFSGGAGTYYADSVKGRFTISRDNAKYTVYLQMNSLKPEDTAVYYCAKRYVTPTYRRYYWGPGTQVTVSS	high polyreactivity
QVQLVESGGGLVQAGGSLRLSCAASGSTFIYNTMGWYRQAPGKEREFVAAITQSGGDTYYADSVKGRFTISRDNAKNTVYLQMNSLKPEDTADYYCAAYWILNNFEMYYWGQGPQVTVSS	low polyreactivity
QVQLVESGGGLVQAGGSLRLSCAASGIIFRGYVMGLYIQAPGKERELVAAINSSTGSTYYADSVKGRFTISRDNAKNTVYLQMNSLKPEDTAVYYCNAEDRGSTYVDFDYWGQGTQVTVSS	low polyreactivity
QVQLVESWGGLVQAGGSLRLSCAASGRIFYVYDMGWYRQAPGKERELVAAISWSGGSTSYADSVKGRFTISRDKAMYTVYLQMNSLKPEDTAVNYCAATSAIGWGYDYWGQGTQVNVSS	low polyreactivity
QVQLVESGGGLVQAGGSLRLSCAASGFIFGSYAMGWYRQAPGKERELVAAITSSGITYYADSVKGRFTISRDNAKNTVYLQMNSLKPEDTAVYYCAAEGSTYQGAPGVYYWGQGTQVTVSS	high polyreactivity
QVQLVESGGGLVQAGGSLRLSCAASGSIFPGYAMGWYRQAPGKERELVAAISSGGSTNYADSVKGRFTISRDNAKNTVYLQMNSLKPEDTAVYYCAARVWRYHVYAFYYWGQGTQVTVSS	high polyreactivity
QVQLVESGGGLFQAGGSLRLSCAASGGIFDVYDMGWYRQAPGKERELVAAISEKGGSTYYADSVKGRFTISRDNAKNTGYLQMNSLKPEDTAVYYCAADYVCLSVFSYWAWYDYWGQGTQVNVSS	low polyreactivity
